pKd: −log10 of the molar value. Where a SMILES comes first, the peptide text is derived from it. Bridges are numbered along the chain shown (N, C = ends). The star is where a group is joined. X1 = CC1=CC(C)(C)N(CCCS(=O)(=O)O)c2cc3c(cc21)/C(=C/C=C/C1=[N+](CCCS(=O)(=O)O)c2ccc(S(=O)(=O)[O-])cc2C1(C)CCCC(=O)*)C=C(C(C)(C)C)O3; X8 = CC1=CC(C)(C)N(CCCS(=O)(=O)O)c2cc3c(cc21)/C(=C/C=C/C1=[N+](CCCS(=O)(=O)[O-])c2ccc(S(=O)(=O)O)cc2C1(C)CCCC(=O)*)C=C(C(C)(C)C)O3; X7 = CCN1c2cc3c(cc2C(C)=CC1(C)C)/C(=C/C=C/C1=[N+](CCCS(=O)(=O)[O-])c2ccc(S(=O)(=O)O)cc2C1(C)CCCC(=O)*)C=C(C(C)(C)C)O3; X2 = CCN1c2cc3c(cc2C(C)=CC1(C)C)/C(=C/C=C/C1=[N+](CCCCCC(=O)*)c2ccc(S(=O)(=O)[O-])cc2C1(C)C)C=C(C(C)(C)C)O3; X9 = CCN(CC)c1ccc2c(c1)OC(C(C)(C)C)=C/C2=C\C=C\C1=[N+](CCCS(=O)(=O)[O-])c2ccc(S(=O)(=O)O)cc2C1(C)CCCC(=O)*
Experiments:
[1] = tested on: HT-29 human colon carcinoma tumour (c-Met expressing); assay: In vivo optical imaging of HT-29 tumour-bearing nude mice; parameters: species or system mouse; settings: HT-29 s.c. tumours in female BALB c/A nude mice, i.v., 635 nm excitation
Text: Female BALB c/A nude (Born) mice were used in the study. The use of the animals was approved by the local ethics committee. BALB c/A nude is an inbred immunocompromised mouse strain with a high take rate for human tumours as compared to other nude mice strains. The mice were 8 weeks old upon arrival and with a body weight of approx. 20 grams at the start of the study. The animals were housed in individually ventilated cages (IVC, Scanbur BK) with HEPA filtered air. The animals had ad libitum access to “Rat and Mouse nr. 3 Breeding” diet (Scanbur BK) and tap water acidified by addition of HCl to a molar concentration of 1 mM (pH 3.0).
The colon cancer cell HT-29 is derived from human colon carcinomas and is reported to express c-Met according to Zeng et al [Clin. Exp. Metastasis, 21, 409-417. (2004)]. The cell line was proven to be tumorigenic when inoculated subcutaneously into nude mice [Flatmark et al, Eur. J. Cancer 40, 1593-1598 (2004)].
HT-29 cells were grown in McCoy's 5a medium (Sigma #M8403) supplemented with 10% fetal bovine serum and penicillin/streptomycin. Stocks were made at passage number four (P4) and frozen down for storage in liquid nitrogen at 10^7 cells/vial in the respective culture media containing 5% DMSO. On the day of the transplantation, the cells were thawed quickly in 37° C. water bath (approx. 2 min), washed and resuspended in PBS/2% serum (centrifugation at 1200 rpm for 10 min). Thorough mixing of cells in the vials was ensured every time the cells were aspirated into the dosing syringe. A volume of 0.1 ml of cell suspension was injected s.c. at the shoulder and at the back using a fine bore needle (25 G). The animals were then returned to their cages and the tumours were allowed to grow for 13-17 days. The animals were allowed an acclimatisation period of at least 5 days before the inoculation procedure.
All test substances were reconstituted with PBS from freeze-dried powder. A small stack of white printer paper was imaged to obtain a flat field image which was used to correct for illumination inhomogeneities.
For immobilisation during the optical imaging procedure, the animals were anaesthetized in a coaxial open mask to light surgical level anaesthesia with Isoflurane (typically 1.3-2%), using oxygen as the carrier gas. A small piece of skin (3-5 mm) was removed over parts of the tumour and adjacent muscle using a surgical forceps and fine scissors while the animal was anaesthetized. This was done to measure the signal from tumour and muscle without interference from the overlying skin tissue. The wound was covered by applying a liquid, non-fluorescent bandage spray (3M, MN, USA).
The respiration and body temperature of the animal was monitored with a BioVet system (m2m Imaging Corp, NJ, USA) using a pneumatic sensor underneath the animal and a rectal temperature probe. The BioVet system also supplied external heating using a heating mat set to 40° C. to sustain normal body temperature for the duration of the imaging procedure (2 hours). A Venflon catheter was placed in the tail vein for contrast agent administration. Each animal was given one contrast agent injection. The injected volume was 0.1 ml of test compound followed immediately by a 0.2 ml saline flush. Fluorescence images were acquired just prior to injection and then every 30 seconds for 2 hours.
Imaging was performed through a clinical laparoscope adapted to use a light source to excite the reporter and a filtering system to extract the fluorescence component. […]

human c-Met/Fc chimera = biological target: T1, human c-Met/Fc chimera (Homo sapiens, UniProt P08581); assay: Fluorescence polarisation assay, affinity binding to cMet; settings: 5 nM dye-labelled peptide, c-Met/Fc 0-250 nM, 10 min at 30° C., one-site binding
T1 construct: Fc (immunoglobulin Fc fusion partner); purchased R&D Systems
Method: Monochromatic light passes through a […] polarizing filter and excites fluorescent molecules in the sample. Only those molecules that oriented properly in the vertically polarized plane adsorb light, become excited, and subsequently emit light. The emitted light is measured in both horizontal and vertical planes. The anisotropy value (A), is the ratio between the light intensities following the equation
The fluorescence anisotropy measurements were performed in 384-well microplates in a volume of 10 μL in binding buffer (PBS, 0.01% Tween-20, pH 7.5) using a Tecan Safire fluorescence polarisation plate reader (Tecan, US) at Ex 635/Em 678 nm. The concentration of dye-labelled peptide was held constant (5 nM) and the concentration of the human c-Met/Fc chimera (R&D Systems) was varied from 0-250 nM. Binding mixtures were equilibrated in the microplate for 10 min at 30° C. The observed change in anisotropy was fitted to the equation: […]
where robs is the observed anisotropy, rfree is the anisotropy of the free peptide, rbound is the anisotropy of the bound peptide, Kd is the dissociation constant, cMet is the total c-Met concentration, and P is the total dye-labelled peptide concentration. The equation assumes that the synthetic peptide and the receptor form a reversible complex in solution with 1:1 stoichiometry. Data fitting was done via nonlinear regression using SigmaPlot software to obtain the Kd value (one-site binding).
Compounds 1 to 6 were tested for binding towards human c-Met (Fc chimera).

human serum albumin [2] = biological target: T2, human serum albumin (Homo sapiens, UniProt P02768); assay: in vitro
Text: Fluorescence polarisation assay was used to examine the affinity binding of the imaging agent towards the cMet target as well as the binding properties related to plasma proteins. The principle of the fluorescence polarisation method can briefly be described as follows:
(§1) The change of the polarization value was used to assess the binding of the Compound to human serum albumin as a low change of polarisation value is associated to low binding being appropriate for in-vivo use.

in vitro = settings: mouse, plasma
Text: as §1

human serum albumin [3] = biological target: T2, human serum albumin
[4] = Limited acute dose toxicity study in male rats; assay type: in vivo, rat; settings: i.v.
Method: A limited acute dose toxicity study was conducted to investigate the tolerance of Compound 6 at 100 times the preclinical imaging dose (50 nmol/kg body weight).
The compound was injected intravenously in male rats, and the animals were sacrificed at 1, 14, 21 and 28 days post injection (p.i.). At necropsy, the major organs were inspected for gross pathology, and the kidneys were taken into neutral buffered formalin for subsequent histomorphological evaluation. A weak blue colouration of the skin and a moderate blue colouration of the urine were observed immediately after injection, which disappeared within 1 day p.i. […] The other minor changes seen were incidental and common in young adult laboratory rats. Strong fluorescence staining of blood vessels in the kidney was observed on day 1 p.i.

T2 sequence (P02768 25-609): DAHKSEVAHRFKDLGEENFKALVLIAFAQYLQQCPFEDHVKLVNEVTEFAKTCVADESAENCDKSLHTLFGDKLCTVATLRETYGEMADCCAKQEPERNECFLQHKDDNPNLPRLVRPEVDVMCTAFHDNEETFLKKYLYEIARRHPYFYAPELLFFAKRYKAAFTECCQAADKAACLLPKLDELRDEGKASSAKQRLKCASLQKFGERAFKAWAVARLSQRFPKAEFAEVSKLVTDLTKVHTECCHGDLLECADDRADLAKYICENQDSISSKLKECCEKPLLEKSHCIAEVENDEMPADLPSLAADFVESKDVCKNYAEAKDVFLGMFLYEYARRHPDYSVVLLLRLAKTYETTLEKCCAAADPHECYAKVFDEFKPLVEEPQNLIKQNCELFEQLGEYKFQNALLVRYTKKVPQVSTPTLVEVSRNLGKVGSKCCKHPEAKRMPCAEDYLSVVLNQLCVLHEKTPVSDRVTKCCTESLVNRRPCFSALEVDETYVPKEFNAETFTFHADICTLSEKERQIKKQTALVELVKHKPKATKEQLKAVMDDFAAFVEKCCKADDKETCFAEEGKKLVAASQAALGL
T1 sequence (P08581 with tags, fused parts or gaps limits assumed): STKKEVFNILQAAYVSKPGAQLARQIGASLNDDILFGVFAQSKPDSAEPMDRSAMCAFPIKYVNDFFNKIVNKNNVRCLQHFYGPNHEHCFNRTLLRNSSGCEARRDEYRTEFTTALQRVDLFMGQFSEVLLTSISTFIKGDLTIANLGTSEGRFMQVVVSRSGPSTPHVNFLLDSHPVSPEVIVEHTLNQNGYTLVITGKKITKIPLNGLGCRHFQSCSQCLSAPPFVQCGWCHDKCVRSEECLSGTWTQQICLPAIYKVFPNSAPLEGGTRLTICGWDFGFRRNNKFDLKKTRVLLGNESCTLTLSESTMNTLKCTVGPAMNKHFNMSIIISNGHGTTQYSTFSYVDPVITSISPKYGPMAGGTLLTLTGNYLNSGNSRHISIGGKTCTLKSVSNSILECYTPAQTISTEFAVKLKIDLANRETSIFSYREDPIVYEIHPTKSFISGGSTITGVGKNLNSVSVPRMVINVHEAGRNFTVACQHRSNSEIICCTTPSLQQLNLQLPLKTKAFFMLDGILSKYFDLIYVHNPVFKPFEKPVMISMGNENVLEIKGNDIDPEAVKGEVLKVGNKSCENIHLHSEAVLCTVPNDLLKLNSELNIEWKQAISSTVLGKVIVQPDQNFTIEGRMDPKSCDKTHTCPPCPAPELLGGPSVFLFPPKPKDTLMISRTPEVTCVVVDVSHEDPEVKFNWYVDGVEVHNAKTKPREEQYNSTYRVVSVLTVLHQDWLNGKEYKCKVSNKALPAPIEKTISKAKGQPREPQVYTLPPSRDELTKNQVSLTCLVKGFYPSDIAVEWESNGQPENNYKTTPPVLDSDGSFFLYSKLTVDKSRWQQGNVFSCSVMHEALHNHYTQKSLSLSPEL
T1 sequence (P08581 25-307 limits assumed, change not shown): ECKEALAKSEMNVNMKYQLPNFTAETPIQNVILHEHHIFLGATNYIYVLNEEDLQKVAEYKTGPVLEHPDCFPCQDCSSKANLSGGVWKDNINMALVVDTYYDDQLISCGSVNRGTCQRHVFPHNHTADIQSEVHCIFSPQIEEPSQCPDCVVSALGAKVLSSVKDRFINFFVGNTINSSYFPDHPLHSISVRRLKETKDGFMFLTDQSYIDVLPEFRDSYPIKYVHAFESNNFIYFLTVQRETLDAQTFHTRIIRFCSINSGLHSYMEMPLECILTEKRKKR

SMILES	Average tumour:muscle ratio (2 hours p.i.) [1]	pKd (human c-Met/Fc chimera)	fraction unbound (human serum albumin [2])	remaining at 2 h (in vitro)	Binding human serum albumin (Biacore) (human serum albumin [3])	also measured
CCN1c2cc3c(cc2C(C)=CC1(C)C)/C(=C/C=C/C1=[N+](CCCS(=O)(=O)[O-])c2ccc(S(=O)(=O)O)cc2C1(C)CCCC(=O)NCCCC[C@H](NC(=O)CNC(=O)CNC(=O)CNC(=O)[C@@H](NC(=O)CNC(=O)[C@H](CCC(=O)O)NC(=O)[C@@H](NC(=O)[C@H](CCC(=O)O)NC(=O)[C@H](Cc1ccc(O)cc1)NC(=O)[C@@H]1CSSC[C@H](NC(=O)[C@H](CO)NC(=O)CNC(=O)[C@H](C)NC(C)=O)C(=O)N[C@@H](Cc2ccc(O)cc2)C(=O)N[C@H]2CSSC[C@H](NC(=O)[C@H](CCC(=O)O)NC(=O)[C@H](Cc4ccccc4)NC(=O)[C@H](CCCNC(=N)N)NC(=O)[C@@H]4CCCN4C(=O)[C@@H]4CCCN4C(=O)CNC(=O)[C@H](CO)NC2=O)C(=O)N[C@@H](Cc2c[nH]c4ccccc24)C(=O)N1)[C@@H](C)O)[C@@H](C)O)C(N)=O)C=C(C(C)(C)C)O3 (some centres unmarked) [Compound 5] (Ac-AGSCYCSGPPRFECWCYETEGTGGGK(X7)-NH2; disulfide 4-16, 6-14)	1.22	–	–	–	–	–
CCN(CC)c1ccc2c(c1)OC(C(C)(C)C)=C/C2=C\C=C\C1=[N+](CCCS(=O)(=O)[O-])c2ccc(S(=O)(=O)O)cc2C1(C)CCCC(=O)NCCCC[C@H](NC(=O)CNC(=O)CNC(=O)CNC(=O)[C@@H](NC(=O)CNC(=O)[C@H](CCC(=O)O)NC(=O)[C@@H](NC(=O)[C@H](CCC(=O)O)NC(=O)[C@H](Cc1ccc(O)cc1)NC(=O)[C@@H]1CSSC[C@H](NC(=O)[C@H](CO)NC(=O)CNC(=O)[C@H](C)NC(C)=O)C(=O)N[C@@H](Cc2ccc(O)cc2)C(=O)N[C@H]2CSSC[C@H](NC(=O)[C@H](CCC(=O)O)NC(=O)[C@H](Cc3ccccc3)NC(=O)[C@H](CCCNC(=N)N)NC(=O)[C@@H]3CCCN3C(=O)[C@@H]3CCCN3C(=O)CNC(=O)[C@H](CO)NC2=O)C(=O)N[C@@H](Cc2c[nH]c3ccccc23)C(=O)N1)[C@@H](C)O)[C@@H](C)O)C(N)=O (some centres unmarked) [Compound 2] (Ac-AGSCYCSGPPRFECWCYETEGTGGGK(X9)-NH2; disulfide 4-16, 6-14)	2.40	–	–	–	–	–
CCN1c2cc3c(cc2C(C)=CC1(C)C)/C(=C/C=C/C1=[N+](CCCCCC(=O)NCCCC[C@H](NC(=O)CNC(=O)CNC(=O)CNC(=O)[C@@H](NC(=O)CNC(=O)[C@H](CCC(=O)O)NC(=O)[C@@H](NC(=O)[C@H](CCC(=O)O)NC(=O)[C@H](Cc2ccc(O)cc2)NC(=O)[C@@H]2CSSC[C@H](NC(=O)[C@H](CO)NC(=O)CNC(=O)[C@H](C)NC(C)=O)C(=O)N[C@@H](Cc4ccc(O)cc4)C(=O)N[C@H]4CSSC[C@H](NC(=O)[C@H](CCC(=O)O)NC(=O)[C@H](Cc5ccccc5)NC(=O)[C@H](CCCNC(=N)N)NC(=O)[C@@H]5CCCN5C(=O)[C@@H]5CCCN5C(=O)CNC(=O)[C@H](CO)NC4=O)C(=O)N[C@@H](Cc4c[nH]c5ccccc45)C(=O)N2)[C@@H](C)O)[C@@H](C)O)C(N)=O)c2ccc(S(=O)(=O)[O-])cc2C1(C)C)C=C(C(C)(C)C)O3 [Compound 4] (Ac-AGSCYCSGPPRFECWCYETEGTGGGK(X2)-NH2; disulfide 4-16, 6-14)	1.52	8.49	0.45	> 95%	Very high	–
CC(=O)N[C@@H](C)C(=O)NCC(=O)N[C@@H](CO)C(=O)N[C@H]1CSSC[C@@H](C(=O)N[C@@H](Cc2ccc(O)cc2)C(=O)N[C@@H](CCC(=O)O)C(=O)N[C@H](C(=O)N[C@@H](CCC(=O)O)C(=O)NCC(=O)N[C@H](C(=O)NCC(=O)NCC(=O)NCC(=O)N[C@@H](CCCCNC(=O)CCCC2(C)C(/C=C/C=C3\C=C(C(C)(C)C)Oc4cc5c(cc43)C(C)=CC(C)(C)N5CCCS(=O)(=O)O)=[N+](CCCS(=O)(=O)[O-])c3ccc(S(=O)(=O)O)cc32)C(N)=O)[C@@H](C)O)[C@@H](C)O)NC(=O)[C@H](Cc2c[nH]c3ccccc23)NC(=O)[C@@H]2CSSC[C@H](NC(=O)[C@H](Cc3ccc(O)cc3)NC1=O)C(=O)N[C@@H](CO)C(=O)NCC(=O)N1CCC[C@H]1C(=O)N1CCC[C@H]1C(=O)N[C@@H](CCCNC(=N)N)C(=O)N[C@@H](Cc1ccccc1)C(=O)N[C@@H](CCC(=O)O)C(=O)N2 (some centres unmarked) [Compound 6] (Ac-AGSCYCSGPPRFECWCYETEGTGGGK(X8)-NH2; disulfide 4-16, 6-14)	1.57	–	–	–	–	–
CC(=O)N[C@@H](C)C(=O)NCC(=O)N[C@@H](CO)C(=O)N[C@H]1CSSC[C@@H](C(=O)N[C@@H](Cc2ccc(O)cc2)C(=O)N[C@@H](CCC(=O)O)C(=O)N[C@H](C(=O)N[C@@H](CCC(=O)O)C(=O)NCC(=O)N[C@H](C(=O)NCC(=O)NCC(=O)NCC(=O)N[C@@H](CCCCNC(=O)CCCC2(C)C(/C=C/C=C3\C=C(C(C)(C)C)Oc4cc5c(cc43)C(C)=CC(C)(C)N5CCCS(=O)(=O)O)=[N+](CCCS(=O)(=O)O)c3ccc(S(=O)(=O)[O-])cc32)C(N)=O)[C@@H](C)O)[C@@H](C)O)NC(=O)[C@H](Cc2c[nH]c3ccccc23)NC(=O)[C@@H]2CSSC[C@H](NC(=O)[C@H](Cc3ccc(O)cc3)NC1=O)C(=O)N[C@@H](CO)C(=O)NCC(=O)N1CCC[C@H]1C(=O)N1CCC[C@H]1C(=O)N[C@@H](CCCNC(=N)N)C(=O)N[C@@H](Cc1ccccc1)C(=O)N[C@@H](CCC(=O)O)C(=O)N2 (some centres unmarked) [Compound 6] (Ac-AGSCYCSGPPRFECWCYETEGTGGGK(X1)-NH2; disulfide 4-16, 6-14)	–	9.05	0.54	> 95%	Very low	Fluorescence staining of blood vessels in the kidney ([4]; 100 times dose, day 21 p.i. (strong on day 1, reduced by day 14)): not discernible from control; Light microscopy of the kidneys ([4]; 100 times dose, necropsy at 1, 14, 21 and 28 days p.i.): no Compound 6-related findings in the kidneys; Nephrotoxicity ([4]; 100 times dose, no degeneration, necrosis or inflammation): low; Time to disappearance of blue colouration of skin and urine ([4]; 100 times dose, observed immediately after injection): ≤ 1 days; Tolerance of a single intravenous administration ([4]; 100 times the preclinical imaging dose (50 nmol/kg body weight)): well tolerated and without any drug substance related adverse effects
